Measurements reported in patent publication US20260001953A1 (TWIST BIOSCIENCE, published 2026).
Where a chain is given by its changes, count along the chain named.

T1: mouse CD117 (mouse, UniProt P05532)
T1 construct: antigen of the Carterra SPR kinetics; also called murine CD117
T1 sequence (receptor, looked up): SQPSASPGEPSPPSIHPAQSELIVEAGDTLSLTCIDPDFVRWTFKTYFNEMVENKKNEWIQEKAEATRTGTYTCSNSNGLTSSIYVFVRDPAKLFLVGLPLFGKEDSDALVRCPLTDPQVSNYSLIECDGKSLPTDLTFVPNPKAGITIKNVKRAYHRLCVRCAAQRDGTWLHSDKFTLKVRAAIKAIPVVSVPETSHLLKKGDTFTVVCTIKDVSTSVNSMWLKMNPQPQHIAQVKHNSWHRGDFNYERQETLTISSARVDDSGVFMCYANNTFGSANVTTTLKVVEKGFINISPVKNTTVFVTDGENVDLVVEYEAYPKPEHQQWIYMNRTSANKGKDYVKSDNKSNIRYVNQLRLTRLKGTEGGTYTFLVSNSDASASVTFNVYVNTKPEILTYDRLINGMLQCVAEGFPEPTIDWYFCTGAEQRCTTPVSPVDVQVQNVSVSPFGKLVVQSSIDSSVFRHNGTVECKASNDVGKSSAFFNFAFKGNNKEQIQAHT

T2: SIGLEC-5 (limits assumed)
T2 construct: also called OB-BP-2
T2 receptor: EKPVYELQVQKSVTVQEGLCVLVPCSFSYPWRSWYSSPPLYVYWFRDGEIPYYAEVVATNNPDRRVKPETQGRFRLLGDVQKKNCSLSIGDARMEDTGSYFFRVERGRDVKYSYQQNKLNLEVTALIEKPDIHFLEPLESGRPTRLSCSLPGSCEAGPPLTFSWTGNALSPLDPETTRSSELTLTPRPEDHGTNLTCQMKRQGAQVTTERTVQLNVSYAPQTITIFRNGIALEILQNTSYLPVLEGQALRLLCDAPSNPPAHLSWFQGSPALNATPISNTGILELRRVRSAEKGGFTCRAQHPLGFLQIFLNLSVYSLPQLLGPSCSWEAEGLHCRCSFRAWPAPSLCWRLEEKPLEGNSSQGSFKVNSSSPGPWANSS

B1: CD117-2 (antibody, human IgG1, kappa, V domains shown)
VH: EVQLLESGVGLVQPGGSLRLSCAASGFSFGSYAMSWVRQAPGKGLEWVSSISGSGGTTYYADSVKGRFTISRDNSKNTLYLQMNSLRAEDTAVYYCARDPDDYGDYYFDYWGQGTLVTVSS
VL: DIQMTQSPSSLSASVGDRVTITCRASQSIGEYLNWYQQKPGKAPKLLIYATSSLQRGVPSRFSGSGSGTDFTLTISSLQPEDFATYYCQQSHTTPYTFGGGTKVEIKR
notes: detected with anti-human IgG in FACS
B2: SIGLEC-8-1 (antibody, human IgG1, kappa, V domains shown)
VH: EVQLLESGGGLVQPGGSLRLSCAASGFTFSNFPMSWVRQAPGKGLEWVSSISGTGSSTYYADSVKGRFTISRDNSKNTLYLQMNSLRAEDTAVYYCVREGRYFYYAMDVWGQGTLVTVSS
VL: DIQMTQSPSSLSASVGDRVTITCRASQNIAGYLNWYQQKPGKAPKLLIYAASNLHTGVPSRFSGSGSGTDFTLTISSLQPEDFATYYCQQSYSTPLAFGGGTKVEIKR
notes: tested as expressed and purified mAb
B3: SIGLEC-8-40 (antibody, human IgG1, kappa, V domains shown)
VH: EVQLLESGGGLVQPGGSLRLSCAASGFTFSFFDMMWVRQAPGKGLEWVSQISETGRRTYYADSVKGRFTISRDNSKNTLYLQMNSLRAEDTAVYYCATAEDEQGYDYWGQGTLVTVSS
VL: DIQMTQSPSSLSASVGDRVTITCRASQSINFWLRWYQQKPGKAPKLLIYGTTSLESGVPSRFSGSGSGTDFTLTISSLQPEDFATYYCQQTATWPFTFGQGTKVEIKR
notes: tested as expressed and purified mAb; also called SIBLEC8-40
B4: CD117-1 (antibody, human IgG1, kappa, V domains shown)
VH: EVQLLESGGGLVQPGGSLRLSCAASGFTLTSYAMSWVRQAPGKGLEWVSTISGSGGYTYYADSVKGRFTISRDNSKNTLYLQMNSLRAEDTAVYYCARDSGYDRGLDYWGQGTLVTVSS
VL: DIQMTQSPSSLSASVGDRVTITCRASQSVRTYLNWYQQKPGKAPKLLIYDASTLQSGVPSRFSGSGSGTDFTLTISSLQPEDFATYYCQQSYSSSITFGGGTKVEIKR
notes: as for B1
B5: CD117-7 (antibody, human IgG1, kappa, V domains shown)
VH: EVQLLESGGGLVQPGGSLRLSCAASGFTFSDYAMGWVRQAPGKGLEWVSGIGGSGGSAYYADSVKGRFTISRDNSKNTLYLQMNSLRAEDTAVYYCARGFDSTDGVDYWGQGTLVTVSS
VL: B1 VL with E31N, T51A, S53D, R56T, S91G, H92Y, T93S
notes: as for B1
B6: CD117-14 (antibody, human IgG1, kappa, V domains shown)
VH: B5 VH
VL: DIQMTQSPSSLSASVGDRVTITCQTSQSVSSYLNWYQQKPGKAPKLLIYGASRLESGVPSRFSGSGSGTDFTLTISSLQPEDFATYYCQQSYKTPWTFGGGTKVEIKR
notes: as for B1
B7: SIGLEC-8-27 (antibody, human IgG1, kappa, V domains shown)
VH: EVQLLESGGGLVQPGGSLRLSCAASGFTFSNHVMSWVRQAPGKGLEWVSAISGSGASTYYADSVKGRFTISRDNSKNTLYLQMNSLRAEDTAVYYCARAPIAVAGTADHWGQGTLVTVSS
VL: DIQMTQSPSSLSASVGDRVTITCRASQSIGSDLNWYQQKPGKAPKLLIYGASRLESGVPSRFSGSGSGTDFTLTISSLQPEDFATYYCQQTFTNTPLTFGGGTKVEIKR
notes: as for B2

What was measured:
mouse CD117 = target: T1, mouse CD117; assay: Carterra SPR, mouse CD117
Experimental: (§1) To further evaluate the antibodies discovered during the screens, 21 clones were selected for detailed characterization and were analyzed for target binding kinetics by a Carterra SPR instrument. The binding kinetics of the anti-CD117 antibodies for human CD117, cynomolgus monkey CD117, and murine CD117 are shown in FIG. 29A-29B.

[1] = target: CD117-GFP transiently overexpressed in HEK293T cells (UniProt P10721 26-976); assay: cell-based or functional assay
[2] = target: T3, Cluster of differentiation 117 (CD117), antigen of epitope binning and ELISA (UniProt P10721 26-520, limits assumed); assay: Carterra SPR, human CD117
T3 construct: also called tyrosine-protein kinase KIT; mast/stem cell growth factor receptor (SCFR)
Experimental: as §1

[3] = target: T4, CD117 transiently expressed on Expi293 cells (UniProt P10721 26-976, limits assumed); assay: FACS cell binding, Expi293 transiently expressing CD117
T4 construct: whole, on cells; Two cassettes are described (P2A mVenus and direct mVenus fusion); also called CD117 transient cells; the transient cell line

[4] = target: T4, CD117 transiently expressed on Expi293 …; assay: flow cytometry titration on CD117 transient cells and on parental Expi293
Experimental: (§2) The transient expression of CD117 was validated with a control antibody, Expi293 (FIGS. 17A-17B). Expi293, […], was transiently transfected with CD117 48-hours post-transfection. The secondary antibody used was APC Goat anti-human IgG (diluted 1:400). 100,000 cells per well were blocked with 1×PBS+0.5% BSA for 1 hour, stained with 100 μL of the primary antibody for 1 hour, and stained with the secondary antibody for one hour, all with 3× washes in between each staining.

cyno CD117 = target: T5, cyno CD117 (Macaca fascicularis, UniProt A0A7N9CP24); assay: Carterra SPR, cyno CD117
T5 construct: antigen of the Carterra SPR kinetics; also called cynomolgus monkey CD117
Experimental: as §1

[5] = target: T4, CD117 transiently expressed on Expi293 …; assay: FACS, MFI expressing / parental cells
Experimental: as §2

SIGLEC-6 = target: T6, SIGLEC-6; assay: SPR cross-reactivity table
T6 construct: also called OB-BP-1
In short: (§3)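 Purified antibodies against SIGLEC-8, first selected from synthetic libraries by four rounds of bead-based panning, were tested for cross-reactivity with related SIGLEC proteins by surface plasmon resonance on a Carterra instrument. Each protein tested has a dissociation constant or a binding result listed.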

SIGLEC-7 = target: T7, SIGLEC-7; assay: SPR cross-reactivity table
T7 construct: also called p75/AIRM1
In short: as §3

SIGLEC-3 = target: T8, SIGLEC-3; assay: SPR cross-reactivity table
T8 construct: also called CD33
In short: as §3

SIGLEC-2 = target: T9, SIGLEC-2; assay: SPR cross-reactivity table
T9 construct: also called CD22
In short: as §3

SIGLEC-5 = target: T2, SIGLEC-5; assay: SPR cross-reactivity table
In short: as §3

[6] = target: T10, Sialic acid-binding immunoglobulin-like lectin 8 (SIGLEC-8), antigen of the Carterra SPR studies (UniProt Q9NYZ4 17-363, limits assumed); assay: Carterra SPR
In short: (§4)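 Binding kinetics of antibodies to SIGLEC-8 were measured by surface plasmon resonance on a Carterra instrument. The antibodies came from synthetic antibody libraries panned over four rounds with a bead-based strategy and screened by clonal ELISA. Selected clones were expressed and purified before testing. The read-outs are rate constants, dissociation constants or results from these kinetic runs.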

[7] = target: T11, SIGLEC-8 transiently expressed on cells (UniProt Q9NYZ4 17-499, limits assumed); assay: cell binding titration, transient SIGLEC-8 line
T11 construct: whole, on cells; Two cassettes are described (P2A mVenus and direct mVenus fusion); also called the transient line; pTT5-SIGLEC-8 P2A mVenus

[8] = target: T10, Sialic acid-binding immunoglobulin-like …; assay: Carterra SPR kinetics, summary table
In short: as §4

[9] = target: T11, SIGLEC-8 transiently expressed on cells; assay: flow cytometry titration on cells transiently expressing SIGLEC-8 and on parental Expi293
[10] = target: T10, Sialic acid-binding immunoglobulin-like …; assay: Carterra SPR kinetics, sensorgram panel
In short: as §4

[11] = target: T10, Sialic acid-binding immunoglobulin-like …; assay: Carterra SPR kinetics, sensorgram panel; remark: listed apart in the source
In short: as §4

T3 sequence (P10721 26-520 limits assumed): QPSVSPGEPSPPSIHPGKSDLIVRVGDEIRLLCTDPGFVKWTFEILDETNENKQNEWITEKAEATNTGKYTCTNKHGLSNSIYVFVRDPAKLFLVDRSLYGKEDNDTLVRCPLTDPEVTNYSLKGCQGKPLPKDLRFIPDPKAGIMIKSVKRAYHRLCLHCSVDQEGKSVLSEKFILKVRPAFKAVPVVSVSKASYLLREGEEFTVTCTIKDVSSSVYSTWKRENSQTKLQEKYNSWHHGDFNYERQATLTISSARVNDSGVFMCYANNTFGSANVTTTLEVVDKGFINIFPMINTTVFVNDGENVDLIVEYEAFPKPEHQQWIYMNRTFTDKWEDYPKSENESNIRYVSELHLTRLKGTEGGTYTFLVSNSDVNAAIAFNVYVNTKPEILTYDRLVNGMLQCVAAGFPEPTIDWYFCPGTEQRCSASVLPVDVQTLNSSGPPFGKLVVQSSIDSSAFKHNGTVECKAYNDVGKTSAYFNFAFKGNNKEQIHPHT
T4 sequence (P10721 26-976 limits assumed): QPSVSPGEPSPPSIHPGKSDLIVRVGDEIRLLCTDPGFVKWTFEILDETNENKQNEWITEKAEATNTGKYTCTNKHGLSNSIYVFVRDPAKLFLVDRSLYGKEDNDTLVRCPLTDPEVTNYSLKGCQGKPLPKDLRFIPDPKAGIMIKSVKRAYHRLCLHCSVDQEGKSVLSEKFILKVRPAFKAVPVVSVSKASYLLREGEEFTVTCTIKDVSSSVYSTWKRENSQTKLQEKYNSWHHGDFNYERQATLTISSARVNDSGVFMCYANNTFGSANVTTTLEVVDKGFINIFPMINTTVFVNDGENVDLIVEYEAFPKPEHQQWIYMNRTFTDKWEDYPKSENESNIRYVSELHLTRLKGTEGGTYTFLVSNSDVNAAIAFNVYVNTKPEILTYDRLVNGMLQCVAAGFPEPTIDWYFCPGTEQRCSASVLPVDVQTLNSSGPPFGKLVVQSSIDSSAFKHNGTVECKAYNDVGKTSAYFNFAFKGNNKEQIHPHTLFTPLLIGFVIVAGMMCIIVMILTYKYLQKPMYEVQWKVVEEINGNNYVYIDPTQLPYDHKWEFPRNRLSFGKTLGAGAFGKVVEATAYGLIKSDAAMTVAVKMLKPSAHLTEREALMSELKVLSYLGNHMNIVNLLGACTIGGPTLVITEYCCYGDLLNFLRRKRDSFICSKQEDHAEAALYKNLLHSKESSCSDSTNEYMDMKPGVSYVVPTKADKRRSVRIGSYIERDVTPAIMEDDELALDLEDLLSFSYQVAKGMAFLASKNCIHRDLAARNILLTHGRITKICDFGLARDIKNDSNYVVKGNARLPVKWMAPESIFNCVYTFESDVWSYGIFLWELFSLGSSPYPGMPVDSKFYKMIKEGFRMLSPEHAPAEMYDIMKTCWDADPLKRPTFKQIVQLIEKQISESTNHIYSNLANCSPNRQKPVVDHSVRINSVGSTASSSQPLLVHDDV
T10 sequence (Q9NYZ4 17-363 limits assumed): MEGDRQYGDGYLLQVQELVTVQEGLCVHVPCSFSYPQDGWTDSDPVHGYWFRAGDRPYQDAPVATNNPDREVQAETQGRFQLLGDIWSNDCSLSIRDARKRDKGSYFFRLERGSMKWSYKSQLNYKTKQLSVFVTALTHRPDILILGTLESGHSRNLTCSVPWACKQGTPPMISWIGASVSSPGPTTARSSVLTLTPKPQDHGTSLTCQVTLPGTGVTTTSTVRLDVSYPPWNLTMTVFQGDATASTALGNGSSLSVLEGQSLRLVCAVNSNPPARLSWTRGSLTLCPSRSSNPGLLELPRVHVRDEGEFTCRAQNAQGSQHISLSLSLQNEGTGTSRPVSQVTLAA
T11 sequence (Q9NYZ4 17-499 limits assumed): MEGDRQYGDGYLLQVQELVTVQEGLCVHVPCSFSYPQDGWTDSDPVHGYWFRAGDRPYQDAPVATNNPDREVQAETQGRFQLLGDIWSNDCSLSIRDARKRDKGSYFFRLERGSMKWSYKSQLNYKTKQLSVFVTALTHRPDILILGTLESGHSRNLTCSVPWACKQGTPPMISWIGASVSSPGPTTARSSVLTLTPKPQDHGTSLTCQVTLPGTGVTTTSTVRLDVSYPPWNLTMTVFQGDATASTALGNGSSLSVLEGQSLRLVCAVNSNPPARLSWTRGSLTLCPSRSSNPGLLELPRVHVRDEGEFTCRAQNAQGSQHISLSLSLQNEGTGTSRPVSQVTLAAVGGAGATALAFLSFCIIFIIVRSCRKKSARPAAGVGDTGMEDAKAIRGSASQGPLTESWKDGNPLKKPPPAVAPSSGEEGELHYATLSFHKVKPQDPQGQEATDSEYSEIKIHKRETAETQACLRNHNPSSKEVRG
T5 sequence (A0A7N9CP24 entry or part of it): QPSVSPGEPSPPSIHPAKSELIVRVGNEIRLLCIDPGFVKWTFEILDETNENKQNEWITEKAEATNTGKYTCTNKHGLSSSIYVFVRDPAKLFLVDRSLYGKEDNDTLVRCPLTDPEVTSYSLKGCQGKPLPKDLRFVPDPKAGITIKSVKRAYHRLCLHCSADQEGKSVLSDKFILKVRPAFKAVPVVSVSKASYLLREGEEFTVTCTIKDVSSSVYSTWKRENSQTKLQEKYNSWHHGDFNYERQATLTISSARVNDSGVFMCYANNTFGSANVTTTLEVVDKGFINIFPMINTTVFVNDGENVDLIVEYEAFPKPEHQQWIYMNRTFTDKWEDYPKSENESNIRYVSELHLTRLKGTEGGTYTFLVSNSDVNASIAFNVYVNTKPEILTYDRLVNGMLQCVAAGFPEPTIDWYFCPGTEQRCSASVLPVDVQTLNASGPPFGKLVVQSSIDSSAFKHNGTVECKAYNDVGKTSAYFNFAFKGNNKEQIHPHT
T9 sequence (chain, as listed by the source limits assumed): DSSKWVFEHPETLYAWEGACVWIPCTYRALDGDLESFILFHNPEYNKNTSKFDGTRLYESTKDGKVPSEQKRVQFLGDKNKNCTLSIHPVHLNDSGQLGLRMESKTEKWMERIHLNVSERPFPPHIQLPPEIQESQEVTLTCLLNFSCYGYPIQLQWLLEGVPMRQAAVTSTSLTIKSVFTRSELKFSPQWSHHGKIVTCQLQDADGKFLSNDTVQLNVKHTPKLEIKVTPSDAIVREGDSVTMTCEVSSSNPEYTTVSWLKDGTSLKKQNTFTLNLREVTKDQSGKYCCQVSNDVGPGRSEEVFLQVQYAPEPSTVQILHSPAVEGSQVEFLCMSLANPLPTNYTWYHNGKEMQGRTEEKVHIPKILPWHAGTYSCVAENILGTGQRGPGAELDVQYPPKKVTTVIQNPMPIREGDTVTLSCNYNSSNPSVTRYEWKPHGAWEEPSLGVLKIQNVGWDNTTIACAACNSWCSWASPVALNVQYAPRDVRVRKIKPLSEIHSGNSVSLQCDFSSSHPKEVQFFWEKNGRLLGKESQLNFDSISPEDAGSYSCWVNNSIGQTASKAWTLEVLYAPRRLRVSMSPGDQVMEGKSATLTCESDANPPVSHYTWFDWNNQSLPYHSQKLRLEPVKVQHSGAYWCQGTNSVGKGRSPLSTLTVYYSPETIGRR
T8 sequence (receptor, as listed by the source limits assumed): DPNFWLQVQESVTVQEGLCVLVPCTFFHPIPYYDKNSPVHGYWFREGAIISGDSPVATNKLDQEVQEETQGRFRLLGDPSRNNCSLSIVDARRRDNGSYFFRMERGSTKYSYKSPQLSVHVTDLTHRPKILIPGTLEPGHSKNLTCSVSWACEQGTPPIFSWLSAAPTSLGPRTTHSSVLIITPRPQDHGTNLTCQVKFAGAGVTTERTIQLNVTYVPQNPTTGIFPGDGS
T7 sequence (receptor, as listed by the source limits assumed): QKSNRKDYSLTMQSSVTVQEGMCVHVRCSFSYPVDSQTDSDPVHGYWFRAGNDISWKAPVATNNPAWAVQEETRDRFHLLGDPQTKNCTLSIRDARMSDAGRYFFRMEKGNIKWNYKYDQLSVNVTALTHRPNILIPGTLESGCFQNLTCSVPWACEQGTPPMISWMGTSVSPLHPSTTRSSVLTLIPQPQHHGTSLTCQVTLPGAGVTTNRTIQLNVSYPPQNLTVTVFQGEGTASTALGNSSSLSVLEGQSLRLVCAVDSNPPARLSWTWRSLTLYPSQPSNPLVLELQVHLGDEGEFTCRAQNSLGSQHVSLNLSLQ
T6 sequence (receptor, as listed by the source limits assumed): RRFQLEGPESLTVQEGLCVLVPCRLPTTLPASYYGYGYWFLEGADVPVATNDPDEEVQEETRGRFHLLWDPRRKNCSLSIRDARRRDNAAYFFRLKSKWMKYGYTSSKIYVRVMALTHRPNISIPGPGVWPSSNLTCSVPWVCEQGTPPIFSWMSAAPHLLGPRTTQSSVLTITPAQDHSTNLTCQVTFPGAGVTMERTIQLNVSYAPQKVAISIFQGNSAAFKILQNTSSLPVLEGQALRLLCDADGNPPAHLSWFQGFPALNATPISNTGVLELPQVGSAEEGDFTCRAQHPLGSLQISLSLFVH

Row | Binder | Kd [2] | koff [2] | kon [2] | EC50 [3] | Kd (cyno CD117) | koff (cyno CD117) | kon (cyno CD117) | MFI Ratio [5] | EC50 [7] | binding result (mouse CD117) | other results
1 | B1 | 208 nM | 0.136 s⁻¹ | 655000 M⁻¹ s⁻¹ | 0.742 nM | 607 nM | 0.201 s⁻¹ | 331000 M⁻¹ s⁻¹ | 30.7 |  |  | Kd (mouse CD117): 13.7 nM; koff (mouse CD117): 0.00222 s⁻¹; kon (mouse CD117): 161000 M⁻¹ s⁻¹; IC50, inhibition of the SCF-stimulated SRF reporter signal (FFLuc/RLuc); same row prints log(IC50) -9.344 and Span -0.2266 [1]: 4.53e-10 M; EC50 (read off the curve) [4]: ~1 nM
2 | B2 |  |  |  |  |  |  |  |  | 1.26 nM |  | Kd (SIGLEC-6): 7 nM; Kd (SIGLEC-7): 5240 nM; Kd (SIGLEC-3): 135 nM; Kd (SIGLEC-2): 196 nM; Kd (SIGLEC-5): 5.8 nM; Kd [6]: 0.292 nM; koff [8]: 4.38e-05 s⁻¹; kon [8]: 150000 M⁻¹ s⁻¹; EC50 (read off the curve) [9]: ~5 nM
3 | B3 |  |  |  |  |  |  |  |  | 0.609 nM |  | Kd [10]: < 0.023 nM; Kd [6]: 0.0225 nM; koff [8]: 1e-05 s⁻¹; kon [8]: 444000 M⁻¹ s⁻¹
4 | B4 | 189 nM | 0.1 s⁻¹ | 530000 M⁻¹ s⁻¹ | 23.8 nM | 508 nM | 0.16 s⁻¹ | 315000 M⁻¹ s⁻¹ | 26.6 |  | no binding | IC50, inhibition of the SCF-stimulated SRF reporter signal (FFLuc/RLuc); same row prints log(IC50) -9.366 and Span -0.2174 [1]: 4.31e-10 M
5 | B5 | 22 nM | 0.0194 s⁻¹ | 882000 M⁻¹ s⁻¹ | 4.01 nM | 14.2 nM | 0.0159 s⁻¹ | 1.12e+06 M⁻¹ s⁻¹ | 21.9 |  | no binding | IC50, inhibition of the SCF-stimulated SRF reporter signal (FFLuc/RLuc); same row prints log(IC50) -9.451 and Span -0.1049 [1]: 3.54e-10 M
6 | B6 | 2.53 nM | 0.00177 s⁻¹ | 698000 M⁻¹ s⁻¹ | 0.0718 nM | 2.34 nM | 0.00146 s⁻¹ | 624000 M⁻¹ s⁻¹ | 12.2 |  | no binding | IC50, inhibition of the SCF-stimulated SRF reporter signal (FFLuc/RLuc); same row prints log(IC50) -9.67 and Span -0.1208 [1]: 2.14e-10 M
7 | B7 |  |  |  |  |  |  |  |  | 904 nM |  | binding result [11]: no binding
